Test results: US20230265179A1 (TWIST BIOSCIENCE, published 2023)
Numbering of substitutions follows the chain as printed.

T1: CD40L over-expressed on Expi293 cells (UniProt P29965 1-261, limits assumed)
T1 construct: whole, on cells; also called cytokine over-expressing Expi293 cells
T1 sequence (looked up): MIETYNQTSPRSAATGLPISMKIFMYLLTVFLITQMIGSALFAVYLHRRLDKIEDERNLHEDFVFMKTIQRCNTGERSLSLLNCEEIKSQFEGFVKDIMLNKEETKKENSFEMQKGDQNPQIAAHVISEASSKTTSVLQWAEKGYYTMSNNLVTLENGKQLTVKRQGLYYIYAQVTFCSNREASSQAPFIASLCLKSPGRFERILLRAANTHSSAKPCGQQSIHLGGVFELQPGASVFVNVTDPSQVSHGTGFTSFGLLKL

T2: CD40L (UniProt P29965 113-261, limits assumed)
T2 construct: SPR analyte
T2 sequence (looked up): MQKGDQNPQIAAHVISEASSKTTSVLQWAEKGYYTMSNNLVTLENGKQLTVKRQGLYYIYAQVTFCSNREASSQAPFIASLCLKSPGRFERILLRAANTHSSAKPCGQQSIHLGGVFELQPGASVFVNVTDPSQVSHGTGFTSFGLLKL

B1: CD40L-42 (VHH)
VHH: EVQLVESGGGLVQPGGSLRLSCAASGSMSSINAMGWFRQAPGKEREFVAVIYSSDGSTLYADSVKGRFTISADNSKNTAYLQMNSLKPEDTAVYYCAAEPYGSGSSLISEYDWGQGTLVTVSS
B2: CD40L-6 (VHH)
VHH: B1 VHH with M28I, S29D, S30N, N32H, V48I, S53W, S54R, T58S
B3: CD40L-12 (VHH)
VHH: EVQLVESGGGLVQPGGSLRLSCAASGRSFSTYTMGWFRQAPGKEREFVAVIYTSDGANLYADSVKGRFTISADNSKNTAYLQMNSLKPEDTAVYYCAAETYGSGSSLMSEYDWGQGTLVTVSS
B4: CD40L-18 (VHH)
VHH: B1 VHH with M28I, I31V, V48I, S53W, S54R, T58S
B5: CD40L-9 (VHH)
VHH: B1 VHH with M28G, S29L
B6: CD40L-30 (VHH)
VHH: B1 VHH with S27N, M28I, S29F, S30R
B7: CD40L-17 (VHH)
VHH: B1 VHH with S27R, M28T, S30N, N32Y, I108M
B8: CD40L-27 (VHH)
VHH: B1 VHH with M28I, N32H, V48I, S53W, S54R, T58S, I108M
B9: CD40L-16 (VHH)
VHH: EVQLVESGGGLVQPGGSLRLSCAASGRIFSTYFMGWFRQAPGKEREWISTVYSNGHTYYADSVKGRFTISADNSKNTAYLQMNSLKPEDTAVYYCAAWLNGGNRWGQGTLVTVSS
B10: CD40L-52 (VHH)
VHH: B9 VHH with I48V, V51I, H56T, T57P, Y58A
B11: CD40L-15 (VHH)
VHH: EVQLVESGGGLVQPGGSLRLSCAASGFTFDDYDMGWFRQAPGKERELVASITSGGSTNYADSVKGRFTISADNSKNTAYLQMNSLKPEDTAVYYCAIPHGIDLYTFDWGQGTLVTVSS
B12: CD40L-19 (VHH)
VHH: EVQLVESGGGLVQPGGSLRLSCAASGTITSAVFMGWFRQAPGKEREWVATISSHGLPVYADSVKGRFTISADNSKNTAYLQMNSLKPEDTAVYYCAIDEGMDYDGNFYDWGQGTLVTVSS
B13: CD40L-56 (VHH)
VHH: EVQLVESGGGLVQPGGSLRLSCAASGFTLDHYDMGWFRQAPGKEREFVAVINWSGAYTEYADSVKGRFTISADNSKNTAYLQMNSLKPEDTAVYYCASDHYDTDTKSDVYNWGQGTLVTVSS

The binders below were run against T1, CD40L over-expressed on Expi293 cells (assay: flow cytometry, 100 nM antibody, CD40L-Expi293 vs parent Expi293 cells;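 also: ratio is the mean fluorescence intensity on CD40L-overexpressing Expi293 cells divided by the mean fluorescence intensity on parental Expi293 cells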).
Procedure: All incubations and washes were in buffer containing PBS+1% BSA. MFI Ratio is defined by the mean fluorescence intensity (MFI) of the cytokine over-expressing Expi293 cell over the Expi293 parent cell. […] EC50 was calculated in GraphPad Prism.

| Binder | 100 nM FACS (MFI Ratio) |
| --- | --- |
| B1 | 40 ratio |
| B2 | 67.4 ratio |
| B3 | 46.2 ratio |
| B4 | 29.8 ratio |
| B5 | 21.1 ratio |
| B6 | 24.3 ratio |
| B7 | 45.6 ratio |
| B8 | 44.9 ratio |
| B9 | 47.8 ratio |
| B10 | 91.9 ratio |
| B11 | 29 ratio |
| B12 | 1.9 ratio |
| B13 | 68.4 ratio |

The binders below were run against T2, CD40L (assay: SPR (Carterra LSA), antibody amine-coupled, 1:1 model).
Procedure: SPR experiments were performed on a Carterra LSA SPR biosensor equipped with a HC30M chip at 25° C. in HBS-TE. Antibodies were diluted to 10 μg/mL and amine-coupled to the sensor chip by EDC/NHS activation, followed by ethanolamine HCl quenching. Increasing concentrations of analyte were flowed over the sensor chip in HBS-TE with 0.5 mg/mL BSA with 5-minute association and 15-minute dissociation. Following each injection cycle the surface was regenerated with 2× 30-second injections of IgG elution buffer (Thermo). Data were analyzed in Carterra's Kinetics Tool software with 1:1 binding model.

| Binder | Kd | koff | kon |
| --- | --- | --- | --- |
| B1 | 2.46 nM | 0.000639 s⁻¹ | 260000 M⁻¹ s⁻¹ |
| B2 | 0.319 nM | 8.01e-05 s⁻¹ | 251000 M⁻¹ s⁻¹ |
| B3 | 1.03 nM | 0.000266 s⁻¹ | 257000 M⁻¹ s⁻¹ |
| B4 | 1.77 nM | 0.000391 s⁻¹ | 221000 M⁻¹ s⁻¹ |
| B5 | 1.13 nM | 0.000284 s⁻¹ | 251000 M⁻¹ s⁻¹ |
| B6 | 4.04 nM | 0.000633 s⁻¹ | 157000 M⁻¹ s⁻¹ |
| B7 | 2.32 nM | 0.000363 s⁻¹ | 157000 M⁻¹ s⁻¹ |
| B8 | 0.749 nM | 0.000155 s⁻¹ | 207000 M⁻¹ s⁻¹ |
| B9 | 7.93 nM | 0.000278 s⁻¹ | 35100 M⁻¹ s⁻¹ |
| B10 | 7.56 nM | 0.000453 s⁻¹ | 59900 M⁻¹ s⁻¹ |
| B11 | 1.29 nM | 0.000384 s⁻¹ | 299000 M⁻¹ s⁻¹ |
| B12 | 6.72 nM | 0.00119 s⁻¹ | 177000 M⁻¹ s⁻¹ |
| B13 | 0.422 nM | 0.000208 s⁻¹ | 492000 M⁻¹ s⁻¹ |
